Measurements from patent US20230131598A1 (GlaxoSmithKline, published 2023).

Target: T1, human TIM-3 (T Cell Immunoglobulin and Mucin Domain-3) (human, UniProt Q8TDQ0 22-301)
T1 construct: The occupancy sentence names neither the receptor nor its form; also called HAVCR2
T1 sequence: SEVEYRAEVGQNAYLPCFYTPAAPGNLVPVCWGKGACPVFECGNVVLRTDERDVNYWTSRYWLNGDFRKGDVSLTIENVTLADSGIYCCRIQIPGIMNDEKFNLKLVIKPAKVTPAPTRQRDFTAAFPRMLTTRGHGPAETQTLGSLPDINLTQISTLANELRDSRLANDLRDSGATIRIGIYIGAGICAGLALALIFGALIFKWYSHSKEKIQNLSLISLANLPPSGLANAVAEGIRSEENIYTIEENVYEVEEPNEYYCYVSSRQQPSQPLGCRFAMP
Test: receptor occupancy in subjects of a corresponding Phase 1 study (method not described)

binding result: binds
B1: cobolimab (antibody, human IgG4 S228P, kappa, V domains shown)
VH: EVQLLESGGGLVQPGGSLRLSCAAASGFTFSSYDMSWVRQAPGKGLDWVSTISGGGTYTYYQDSVKGRFTISRDNSKNTLYLQMNSLRAEDTAVYYCASMDYWGQGTTVTVSS
VL: DIQMTQSPSSLSASVGDRVTITCRASQSIRRYLNWYHQKPGKAPKLLIYGASTLQSGVPSRFSGSGSGTDFTLTISSLQPEDFAVYYCQQSHSAPLTFGGGTKVEIKR
notes: also called Anti-TIM3
